Measurements from PMC5171882, “Metagenomic mining for thermostable esterolytic enzymes uncovers a new family of bacterial esterases” (Scientific Reports, 2016).

Assays:
Experiment in all cases: purified protein
Type in all cases: biochemical, uncultured Acetothermia bacterium
Conditions in all cases: standard reaction: 25 mM Tris-HCl pH 8, 0.05% Triton X-100, 50 °C
purified protein [1] = substrate: CCCC(=O)Oc1ccc([N+](=O)[O-])cc1
purified protein [2] = substrate: CCCCCCCC(=O)Oc1ccc([N+](=O)[O-])cc1
purified protein [3] = substrate: CCCCCCCCCC(=O)Oc1ccc([N+](=O)[O-])cc1
purified protein [4] = substrate: CC(=O)Oc1ccc([N+](=O)[O-])cc1

B1: EstDZ2 (uncultured Acetothermia bacterium) (protein)
chain: APPFSFQVYTDVVYYDGPDAHPTKHRLDLFVPDGLQDAPVLIFVHGGGWTSGDKNLYAFIGQAFAAQGFATAVINYRLSPQVQHPAHIEDVARAFSWVYKNIARYGGNPEKIFVTGHSAGGHLTALLALDEKYLQAHGLTLAAIKGAIPISGVYDVTPVLALYRTVFGADPDQRWDASPLAHVGPNKPPFLILYAQFDFPGLGLQAQQLFAELRTHNNEATLTEIPNRDHVTIVATIGASNDPTTEEI
notes: predicted signal peptide (aa 2-21) replaced by N-terminal hexa-histidine tag, kept; E. coli BL21(DE3); Ni-NTA; monomer, ~29 kDa; HGGG and GHSAG motifs; primer encodes APPFSF after His tag
Km (purified protein [1]): 320 ± 90 µM
kcat/Km (purified protein [1]): 1.44e+07 M⁻¹ s⁻¹
Km (purified protein [2]): 200 ± 20 µM
kcat/Km (purified protein [2]): 1.04e+07 M⁻¹ s⁻¹
Km (purified protein [3]): 120 ± 10 µM
kcat/Km (purified protein [3]): 7.55e+06 M⁻¹ s⁻¹
Km (purified protein [4]): 670 ± 150 µM
kcat/Km (purified protein [4]): 1.76e+06 M⁻¹ s⁻¹
